Substitutions are numbered along the chain they refer to.
Tests used:
Settings in all cases: protein: recombinant; tags: N-terminal GST (pGEX-4T-1); label: 5' Cy5; single-stranded
[1] = target: T1, GST-LHP1 W129C (Arabidopsis thaliana (Col-0 cDNA), UniProt Q946J8 1-445, W129C); assay: EMSA; wild-type RNA-binding activity retained; EMSA: 20 mM HEPES-KOH pH 7.5, 100 mM KCl, 0.05% NP-40, 10 nM Cy5 probe (1 uL of 100 nM + 9 uL protein), 30 min room temperature; 1.6% TBE-agarose gel
T1 sequence: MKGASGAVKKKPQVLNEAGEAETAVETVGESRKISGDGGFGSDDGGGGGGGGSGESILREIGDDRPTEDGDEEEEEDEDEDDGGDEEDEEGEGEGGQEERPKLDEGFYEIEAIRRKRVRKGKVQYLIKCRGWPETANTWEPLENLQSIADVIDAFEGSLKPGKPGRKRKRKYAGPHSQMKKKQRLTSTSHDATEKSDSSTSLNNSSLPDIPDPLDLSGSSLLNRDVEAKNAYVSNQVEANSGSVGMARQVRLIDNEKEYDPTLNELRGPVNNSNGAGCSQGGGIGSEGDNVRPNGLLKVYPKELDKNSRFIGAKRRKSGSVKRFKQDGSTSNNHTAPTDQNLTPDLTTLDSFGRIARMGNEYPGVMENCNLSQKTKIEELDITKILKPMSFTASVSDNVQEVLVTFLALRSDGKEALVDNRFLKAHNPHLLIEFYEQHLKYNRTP

[2] = target: T2, GST-LHP1 KR33A (Arabidopsis thaliana (Col-0 cDNA), UniProt Q946J8 1-445, R166A;K167A;R168A;K169A;R170A;K171A;K180A;K181A;K182A;R184A;K195A;R224A;K229A;R2 …); assay: EMSA; EMSA: 20 mM HEPES-KOH pH 7.5, 100 mM KCl, 0.05% NP-40, 10 nM Cy5 probe (1 uL of 100 nM + 9 uL protein), 30 min room temperature; 1.6% TBE-agarose gel
T2 sequence: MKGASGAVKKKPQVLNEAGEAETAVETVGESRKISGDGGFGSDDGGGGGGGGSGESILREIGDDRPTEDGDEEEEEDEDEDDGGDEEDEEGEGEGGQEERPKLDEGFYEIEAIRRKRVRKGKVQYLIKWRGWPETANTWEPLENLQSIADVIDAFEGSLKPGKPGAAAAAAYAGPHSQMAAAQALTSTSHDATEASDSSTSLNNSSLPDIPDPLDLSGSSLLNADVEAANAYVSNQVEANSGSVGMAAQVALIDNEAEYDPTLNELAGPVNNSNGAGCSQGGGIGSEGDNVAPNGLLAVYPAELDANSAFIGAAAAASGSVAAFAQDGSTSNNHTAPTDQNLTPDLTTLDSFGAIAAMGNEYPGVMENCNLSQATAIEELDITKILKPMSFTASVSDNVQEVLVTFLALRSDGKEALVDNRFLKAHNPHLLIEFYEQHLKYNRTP

[3] = target: T3, GST-LHP1 KR23A (Arabidopsis thaliana (Col-0 cDNA), UniProt Q946J8 1-445, R166A;K167A;R168A;K169A;R170A;K171A;K180A;K181A;K182A;R184A;K195A;R292A;K298A;K3 …); assay: as above
T3 sequence: T2 sequence with A224R, A229K, A248R, A251R, A257K, A267R, A354R, A357R, A374K, A376K

CUCCUCCGGCGAUAAGUACGCCUUUUCCUUACCUGGGUUU (ssRNA) [FLC 40-nt ssRNA]
binding result [1]: binds
binding result [2]: no binding
binding result [3]: no binding
